Assay results taken from PMC3196588.

How the values were obtained:
[1] = target: C3S mutant of human galectin-1 (human) (UniProt P09382); experiment: fluorescence polarisation; fluorescence anisotropy inhibition assay: haptoglobin as inhibitor of the interaction of galectin-1 or mutants with a fluorescein tagged thiodigalactoside-amid (tdga) probe; Kd from inhibitory potency, haptoglobin counted as the dimer
[2] = target: C3S mutant of human galectin-1 (human) (UniProt P09382); experiment: affinity chromatography; galectin-1 C3S (or C3S N34D) coupled to 1 ml column; 2 mg haptoglobin (pooled from human plasma) in 2 ml PBS circulated 30 min on ice; wash 32 column volumes PBS; elution with 150 mM lactose; unbound fraction rechromatographed
[3] = target: C3S mutant of human galectin-1 (human) (UniProt P09382); experiment: affinity chromatography; galectin-1 C3S (or its site B mutants) coupled to 1 ml NHS-activated Hi-Trap column; 0.1 ml serum from healthy individuals in 1.9 ml PBS circulated 30 min on ice; wash 32 column volumes PBS; elution with 150 mM lactose; bound proteins identified by SDS-PAGE, MALDI-TOF MS and western blot, IgM and haptoglobin quantitated by ELISA
[4] = target: C3S mutant of human galectin-1 (human) (UniProt P09382); experiment: affinity chromatography; galectin-1 C3S coupled to 1 ml NHS-activated Hi-Trap column; 0.1 ml serum from metastatic breast cancer patients in 1.9 ml PBS circulated 30 min on ice; wash 32 column volumes PBS; elution with 150 mM lactose; bound proteins identified by SDS-PAGE, MALDI-TOF MS and western blot, IgM and haptoglobin quantitated by ELISA

## haptoglobin (human, unfractionated) (from UniProt P00738 19-160; P00738 162-406) (complex)
[1]
  Kd: 2.5 µM
[2]
  percent bound to the column: 30%
[3]
  percent of haptoglobin bound to galectin-1 (average, control sera): 30%
[4]
  percent of haptoglobin bound to galectin-1 (average, cancer sera): 50%

## IgM (human serum) (from UniProt P01591 23-159) (complex)
[3]
  percent of IgM bound to galectin-1 (mean, healthy sera): 37%
[4]
  percent of IgM bound to galectin-1 (mean, cancer sera): 28%

## galectin-1 non-binding fraction of haptoglobin (from UniProt P00738 19-160; P00738 162-406) (complex)
[2]
  percent bound to the column when rechromatographed: < 1%

## galectin-1 binding fraction of haptoglobin (from UniProt P00738 19-160; P00738 162-406) (complex)
[1]
  Kd: < 1 µM
